Positions count from the first letter of the chain named.

The labels stand for the following.
B1: 3H2 (antibody, mouse IgG2a, V domains shown)
VH: AVQLVESGGGLVQPKESLKLSCAASGFTFSHTAMYWVRQAPGKGLECVARIRIQPKNYATYYADSVKGRFTISRDDSKSMVYLQMDNLKTEDTAMYYCTAAGFGFDYWGQGVMVTVSS
VL: DVVLTQTPVSLSVTLGDQASISCRSSQSLEYSDGNTYLEWYLQKPGQSPQLLIYEVSKRFSGVPDRFIGSGSGTDFTLKISRVEPEDLGIYYCLQATHDPFTFGSGTKLEIK
notes: also called 3H2 antibody; clone 3H2
B2: 2E8 (antibody, mouse IgG2a, V domains shown)
VH: AVQLVESGGGLVQPKESLKISCAASGFTFSNAAMYWVRQAPGKGLEWVARIRTKPNNYATNYADSVKGRFTISRDDSKSMVYLQMDNLKTEDTAMYYCTYYDGSSYAMDAWGQGTSVTVSS
VL: B1 VL with N35Y, E39D, K58N, I90V, L94F, F101Y, S105A
notes: also called 2E8 antibody; clone 2E8
B3: 7G4 (antibody, mouse IgG2a, V domains shown)
VH: B2 VH
VL: B1 VL with N35Y, E39D, V56I, K58N, I90V, L94F, F101Y, S105A
notes: also called 7G4 antibody; clone 7G4
B4: Polatuzumab (antibody, V domains shown)
VH: EVQLVESGGGLVQPGGSLRLSCAASGYTFSSYWIEWVRQAPGKGLEWIGEILPGGGDTNYNEIFKGRATFSADTSKNTAYLQMNSLRAEDTAVYYCTRRVPIRLDYWGQGTLVTVSS
VL: DIQLTQSPSSLSASVGDRVTITCKASQSVDYEGDSFLNWYQQKPGKAPKLLIYAASNLESGVPSRFSGSGSGTDFTLTISSLQPEDFATYYCQQSNEDPLTFGQGTKVEIKR
notes: polatuzumab'; also called humanised anti-CD79b 2F2; anti-CD79b antibody polatuzumab

This assay concerns the target T1, Recombinant purified CD79b (R&D systems) (human, UniProt P40259 29-159).
T1 construct: Bought protein
T1 sequence: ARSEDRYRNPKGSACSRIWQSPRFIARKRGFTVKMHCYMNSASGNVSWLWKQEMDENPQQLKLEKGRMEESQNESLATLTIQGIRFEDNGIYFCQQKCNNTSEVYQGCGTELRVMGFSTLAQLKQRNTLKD
Description: SPR, Biacore 8K, antibody immobilised on CM5 chip, CD79b as analyte, 25° C, 1:1 Langmuir fit. An excerpt:
Recombinant anti-CD79b antibodies Polatuzumab and newly generated antibodies 2E8, 3H2, and 7G4 were immobilised on individual flow cells on a Series S CM5 sensor chip (GE Healthcare) to a density of 150-280 RU using a Biacore 8K instrument. HBS-P+buffer was used as running buffer under all experimental conditions. Recombinant purified CD79b (R&D systems) at known concentrations was used as the ‘analyte’ and injected over the respective flow cells with 150s contact time and 300s dissociation, at 30 μl/minute of flow rate and a constant temperature of 25° C. In each experiment, flow cell 1 was unmodified and used for reference subtraction. A ‘0 concentration’ sensorgram of buffer alone was used as a double reference subtraction to factor for drift. Data were fit to a 1:1 Langmuir binding model.
Background: Surface plasmon resonance follows binding to a sensor surface in real time, without labels.
With B1, the Kd was determined as 2.62 nM, the koff is 0.00431 s⁻¹ and the kon was 1.64e+06 M⁻¹ s⁻¹.
The corresponding values for B2 are 7.11 nM, 0.0805 s⁻¹ and 1.13e+07 M⁻¹ s⁻¹.
As for B3, the dissociation constant Kd was determined as 3.1 nM.
As to B4, the Kd was 6.88 nM, the koff stood at 0.00806 s⁻¹ and the kon was found to be 1.17e+06 M⁻¹ s⁻¹.

A word on the Kd: it is a measure of binding affinity in units of concentration. Usually koff stands for the first-order rate constant of dissociation. One may read the kon as a measure of how fast the partners come together.
